* marks the point of attachment. Palmitoyl = CCCCCCCCCCCCCCCC(=O)*; Myristoyl = CCCCCCCCCCCCCC(=O)*; Lauroyl = CCCCCCCCCCCC(=O)*; Decanoyl = CCCCCCCCCC(=O)*; Octanoyl = CCCCCCCC(=O)*
The binders below were run against T1, FZD7 receptor of HEK293-TB cells (human, UniProt O75084 33-574) (assay: cell-based or functional assay).

Binder | IC50 (nM), TOPbrite reporter assay in HEK293-TB cells stimulated with mWnt3a (50 ng/mL) [nM] | Reduction in fold potency vs. dimer [fold]
Ac-LPSDDLEFWCHVAY-NH2 (also: homodimer via Cys10 disulfide) [dFz7-21-M13A] | 913 | 82
Ac-LPSDDAEFWCHVMY-NH2 (also: homodimer via Cys10 disulfide) [dFz7-21-L6A] | 7120 | 642
Ac-LPSDDLEFACHVMY-NH2 (also: homodimer via Cys10 disulfide) [dFz7-21-W9A] | 640 | 58
Ac-LPSDDLEFWCHVMA-NH2 (also: homodimer via Cys10 disulfide) [dFz7-21-Y14A] | 2960 | 267

Target: T1, FZD7 receptor of HEK293-TB cells
Assay: cell-based or functional assay
Remark: another data set of the same source

Binder | Best Fit IC50 (nM), Wnt3a-mediated β-catenin signaling in HEK293-TB cells (50 ng/mL mWnt3a) [nM]
Ac-SDDLEFWCHVK(Lauroyl)Y-NH2 (also: dimer via disulfide bond at Cys8) [dFz7-21Δ2.M13K (C12)] | 553
Ac-SDDLEFWCHVK(Octanoyl)Y-NH2 (also: dimer via disulfide bond at Cys8) [dFz7-21Δ2.M13K (C8)] | 2130
Ac-SDDLEFWCHVK(Myristoyl)Y-NH2 (also: dimer via disulfide bond at Cys8) [dFz7-21Δ2.M13K (C14)] | 607
Ac-SDDLEFWCHVK(Palmitoyl)Y-NH2 (also: dimer via disulfide bond at Cys8) [dFz7-21Δ2.M13K (C16)] | 607
Ac-SDDLEFWCHVK(Decanoyl)Y-NH2 (also: dimer via disulfide bond at Cys8) [dFz7-21Δ2.M13K (C10)] | 1500

Reference: patent US20190359653A1 (Genentech, published 2019)
